From paper PMC9863245, “A Putative New Role of Tv-PSP1 Recognizes IRE and ERE Hairpin Structures from Trichomonas vaginalis”

Key:
[1] = biological target: Tv-PSP1, perchloric-acid-soluble protein (PSP) from Trichomonas vaginalis (Trichomonas vaginalis); test: crystal structure; recombinant Tv-PSP1 20 mg/mL in 25 mM Tris-HCl pH 7.4, 150 mM NaCl, 1 mM DTT; sitting-drop vapor diffusion at 18 °C; space group P63, 1.95 Å; trimers built from the same monomer of different asymmetric units, interfaces analysed with PISA
Tv-PSP1 = biological target: T1, Tv-PSP1 (Trichomonas vaginalis, UniProt A2DAL5 1-124); test: EMSA; 3 mM Mg2+; REMSA: 50 mM Tris-HCl, 75 mM KCl, 3 mM MgCl2, 10 mM DTT, 37 C, 30 min, pH not stated; 100 ug protein, 1 ug RNA; 1.7% agarose; conditions: protein: recombinant; chain copies: 3; hairpin
T1 sequence: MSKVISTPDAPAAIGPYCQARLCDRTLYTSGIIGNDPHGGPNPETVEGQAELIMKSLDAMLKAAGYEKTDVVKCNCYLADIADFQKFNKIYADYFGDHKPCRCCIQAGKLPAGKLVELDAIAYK

Molecule	stoichiometry N [1]	binding result (Tv-PSP1)
Tv-PSP1, perchloric-acid-soluble protein (PSP) from Trichomonas vaginalis (natural protein)	3	–
GGGGUUUAGAAUUUCCAAUAA (structured_RNA) [ERE-like (tvcp39 3' UTR)]	–	binds
